Reference: the supplement of paper PMC9112550, “Optimization of the antimicrobial peptide Bac7 by deep mutational scanning” (BMC Biology, 2022)

Test system: Escherichia coli TOP10
Assay: shrunken log2 fold change of peptide-encoding DNA abundance (4.5 h post-induction vs induction); higher = less antimicrobial activity (less host growth inhibition)
Conditions: time post-induction: 4.5 h; library: site-saturation at positions 5, 18, 19, 20
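Also: peptides expressed intracellularly from a pBAD plasmid library in pooled LB shake-flask culture, induced with 0.3% L-arabinose, DNA abundance read by NGS, three biological replicates, DESeq2 with apeglm shrinkage.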

## RRIRERPPRLPRPRPRPDPRPRP
  shrunken log2 fold change: 0.768

## RRIRWRPPRLPRPRPRPTFAPRP
  shrunken log2 fold change: 0.327

## RRIRNRPPRLPRPRPRPTMWPRP
  shrunken log2 fold change: -0.0923

## RRIRLRPPRLPRPRPRPVYPPRP
  shrunken log2 fold change: -0.132

## RRIRDRPPRLPRPRPRPDGFPRP
  shrunken log2 fold change: 0.0291

## RRIRFRPPRLPRPRPRPRKHPRP
  shrunken log2 fold change: 0.0878

## RRIRPRPPRLPRPRPRPTTYPRP
  shrunken log2 fold change: -0.141

## RRIRSRPPRLPRPRPRPACCPRP
  shrunken log2 fold change: 0.303

## RRIRRRPPRLPRPRPRPRFFPRP
  shrunken log2 fold change: 0.507

## RRIRDRPPRLPRPRPRPFNSPRP
  shrunken log2 fold change: -0.0203

## RRIRARPPRLPRPRPRPHLWPRP
  shrunken log2 fold change: 0.645

## RRIRPRPPRLPRPRPRPQMMPRP
  shrunken log2 fold change: -0.41

## RRIRGRPPRLPRPRPRPMYSPRP
  shrunken log2 fold change: 0.208

## RRIRDRPPRLPRPRPRPGFVPRP
  shrunken log2 fold change: 0.0977

## RRIRHRPPRLPRPRPRPTKHPRP
  shrunken log2 fold change: -0.142

## RRIRDRPPRLPRPRPRPWGKPRP
  shrunken log2 fold change: -0.194

## RRIRSRPPRLPRPRPRPAMCPRP
  shrunken log2 fold change: -0.185

## RRIRWRPPRLPRPRPRPGDTPRP
  shrunken log2 fold change: -0.0199

## RRIRARPPRLPRPRPRPPCQPRP
  shrunken log2 fold change: 0.438

## RRIRPRPPRLPRPRPRPKQTPRP
  shrunken log2 fold change: 0.327

## RRIRGRPPRLPRPRPRPCITPRP
  shrunken log2 fold change: 0.158

## RRIRVRPPRLPRPRPRPEQIPRP
  shrunken log2 fold change: -0.0137

## RRIRERPPRLPRPRPRPWACPRP
  shrunken log2 fold change: 0.0618

## RRIRFRPPRLPRPRPRPLVNPRP
  shrunken log2 fold change: -0.0651

## RRIRNRPPRLPRPRPRPSAQPRP
  shrunken log2 fold change: 0.147

## RRIRNRPPRLPRPRPRPGFFPRP
  shrunken log2 fold change: 0.263

## RRIRLRPPRLPRPRPRPDDAPRP
  shrunken log2 fold change: -0.115

## RRIRYRPPRLPRPRPRPFFNPRP
  shrunken log2 fold change: -0.811

## RRIRYRPPRLPRPRPRPEPDPRP
  shrunken log2 fold change: 0.0689

## RRIRRRPPRLPRPRPRPGDSPRP
  shrunken log2 fold change: 0.269

## RRIRFRPPRLPRPRPRPEFIPRP
  shrunken log2 fold change: -0.523

## RRIRERPPRLPRPRPRPKGEPRP
  shrunken log2 fold change: 0.0173

## RRIRKRPPRLPRPRPRPRCGPRP
  shrunken log2 fold change: 0.451

## RRIRVRPPRLPRPRPRPGLHPRP
  shrunken log2 fold change: -0.0936

## RRIRLRPPRLPRPRPRPFVEPRP
  shrunken log2 fold change: -0.478

## RRIRARPPRLPRPRPRPNNCPRP
  shrunken log2 fold change: -0.466

## RRIRLRPPRLPRPRPRPIRTPRP
  shrunken log2 fold change: 0.0758

## RRIRWRPPRLPRPRPRPKYNPRP
  shrunken log2 fold change: -0.558

## RRIRIRPPRLPRPRPRPHSYPRP
  shrunken log2 fold change: -0.244

## RRIRYRPPRLPRPRPRPSNYPRP
  shrunken log2 fold change: -1.28

## RRIRFRPPRLPRPRPRPPDKPRP
  shrunken log2 fold change: 0.151

## RRIRKRPPRLPRPRPRPDTTPRP
  shrunken log2 fold change: 0.0419

## RRIRQRPPRLPRPRPRPKCNPRP
  shrunken log2 fold change: -0.472

## RRIRHRPPRLPRPRPRPWHRPRP
  shrunken log2 fold change: -0.119

## RRIRSRPPRLPRPRPRPCPRPRP
  shrunken log2 fold change: 0.056

## RRIRERPPRLPRPRPRPMCCPRP
  shrunken log2 fold change: -0.113

## RRIRSRPPRLPRPRPRPHILPRP
  shrunken log2 fold change: -0.0674

## RRIRVRPPRLPRPRPRPMLFPRP
  shrunken log2 fold change: -0.329

## RRIRNRPPRLPRPRPRPIPSPRP
  shrunken log2 fold change: 0.0499

## RRIRSRPPRLPRPRPRPDWLPRP
  shrunken log2 fold change: 0.153

## RRIRPRPPRLPRPRPRPNCDPRP
  shrunken log2 fold change: -0.257

## RRIRGRPPRLPRPRPRPWHKPRP
  shrunken log2 fold change: -0.299

## RRIRARPPRLPRPRPRPDGCPRP
  shrunken log2 fold change: 0.239

## RRIRSRPPRLPRPRPRPKANPRP
  shrunken log2 fold change: 0.126

## RRIRWRPPRLPRPRPRPGCRPRP
  shrunken log2 fold change: 0.417

## RRIRHRPPRLPRPRPRPIPTPRP
  shrunken log2 fold change: -0.218

## RRIRRRPPRLPRPRPRPWNRPRP
  shrunken log2 fold change: -0.049

## RRIRLRPPRLPRPRPRPNHPPRP
  shrunken log2 fold change: -0.498

## RRIRPRPPRLPRPRPRPKANPRP
  shrunken log2 fold change: 0.0243

## RRIRSRPPRLPRPRPRPVHYPRP
  shrunken log2 fold change: -0.707

## RRIRDRPPRLPRPRPRPQSMPRP
  shrunken log2 fold change: 0.0598

## RRIRYRPPRLPRPRPRPTSAPRP
  shrunken log2 fold change: 0.0113

## RRIRCRPPRLPRPRPRPSLMPRP
  shrunken log2 fold change: -0.287

## RRIRWRPPRLPRPRPRPKVPPRP
  shrunken log2 fold change: -0.0143

## RRIRSRPPRLPRPRPRPCNLPRP
  shrunken log2 fold change: -0.561

## RRIRRRPPRLPRPRPRPVVMPRP
  shrunken log2 fold change: -0.0785

## RRIRFRPPRLPRPRPRPLPFPRP
  shrunken log2 fold change: -0.452

## RRIRKRPPRLPRPRPRPISRPRP
  shrunken log2 fold change: -0.00748

## RRIRPRPPRLPRPRPRPVGLPRP
  shrunken log2 fold change: 0.478

## RRIRRRPPRLPRPRPRPWDVPRP
  shrunken log2 fold change: -0.149

## RRIRFRPPRLPRPRPRPTLPPRP
  shrunken log2 fold change: 0.23

## RRIRWRPPRLPRPRPRPPSWPRP
  shrunken log2 fold change: 1.32

## RRIRHRPPRLPRPRPRPYVWPRP
  shrunken log2 fold change: 0.0405

## RRIRNRPPRLPRPRPRPKASPRP
  shrunken log2 fold change: -0.127

## RRIRKRPPRLPRPRPRPADFPRP
  shrunken log2 fold change: 0.344

## RRIRCRPPRLPRPRPRPDVQPRP
  shrunken log2 fold change: 0.0161

## RRIRVRPPRLPRPRPRPTMRPRP
  shrunken log2 fold change: 0.799

## RRIRPRPPRLPRPRPRPPWKPRP
  shrunken log2 fold change: 0.416

## RRIRFRPPRLPRPRPRPFYKPRP
  shrunken log2 fold change: -0.311

## RRIRVRPPRLPRPRPRPASIPRP
  shrunken log2 fold change: -0.437

## RRIRERPPRLPRPRPRPKFAPRP
  shrunken log2 fold change: -0.139

## RRIRGRPPRLPRPRPRPWNRPRP
  shrunken log2 fold change: -0.0647

## RRIRWRPPRLPRPRPRPITRPRP
  shrunken log2 fold change: -0.0637

## RRIRNRPPRLPRPRPRPHIRPRP
  shrunken log2 fold change: -0.0139

## RRIRERPPRLPRPRPRPSDIPRP
  shrunken log2 fold change: -0.0101

## RRIRKRPPRLPRPRPRPCGLPRP
  shrunken log2 fold change: 0.933

## RRIRKRPPRLPRPRPRPAPKPRP
  shrunken log2 fold change: 1.06

## RRIRYRPPRLPRPRPRPTELPRP
  shrunken log2 fold change: 0.0588

## RRIRNRPPRLPRPRPRPSDNPRP
  shrunken log2 fold change: -0.494

## RRIRRRPPRLPRPRPRPPQFPRP
  shrunken log2 fold change: 0.864

## RRIRGRPPRLPRPRPRPINTPRP
  shrunken log2 fold change: -0.4

## RRIRQRPPRLPRPRPRPVDMPRP
  shrunken log2 fold change: -0.108

## RRIRIRPPRLPRPRPRPPFYPRP
  shrunken log2 fold change: -0.438

## RRIRFRPPRLPRPRPRPVRIPRP
  shrunken log2 fold change: -0.0436

## RRIRMRPPRLPRPRPRPAQCPRP
  shrunken log2 fold change: 0.0203

## RRIRMRPPRLPRPRPRPFPWPRP
  shrunken log2 fold change: 0.114

## RRIRPRPPRLPRPRPRPRNKPRP
  shrunken log2 fold change: -0.136

## RRIRMRPPRLPRPRPRPDPHPRP
  shrunken log2 fold change: 0.0256

## RRIRGRPPRLPRPRPRPYEMPRP
  shrunken log2 fold change: 0.0132

## RRIRERPPRLPRPRPRPRDTPRP
  shrunken log2 fold change: -0.0322

## RRIRGRPPRLPRPRPRPWGKPRP
  shrunken log2 fold change: -0.0896

## RRIRRRPPRLPRPRPRPIAWPRP
  shrunken log2 fold change: 0.0624

## RRIRFRPPRLPRPRPRPHDAPRP
  shrunken log2 fold change: 0.293

## RRIRNRPPRLPRPRPRPERVPRP
  shrunken log2 fold change: 0.11

## RRIRTRPPRLPRPRPRPRGYPRP
  shrunken log2 fold change: 0.205

## RRIRYRPPRLPRPRPRPTPSPRP
  shrunken log2 fold change: 0.421

## RRIRQRPPRLPRPRPRPQWRPRP
  shrunken log2 fold change: 0.419

## RRIRQRPPRLPRPRPRPCQIPRP
  shrunken log2 fold change: -0.298

## RRIRMRPPRLPRPRPRPWKHPRP
  shrunken log2 fold change: -0.109

## RRIRHRPPRLPRPRPRPKSHPRP
  shrunken log2 fold change: 0.77

## RRIRLRPPRLPRPRPRPPQSPRP
  shrunken log2 fold change: 0.0818

## RRIRWRPPRLPRPRPRPVYYPRP
  shrunken log2 fold change: -0.412

## RRIRMRPPRLPRPRPRPIGQPRP
  shrunken log2 fold change: 0.00911

## RRIRDRPPRLPRPRPRPIECPRP
  shrunken log2 fold change: 0.279

## RRIRGRPPRLPRPRPRPFHMPRP
  shrunken log2 fold change: -0.0599

## RRIRMRPPRLPRPRPRPFRVPRP
  shrunken log2 fold change: 0.22

## RRIRCRPPRLPRPRPRPMQRPRP
  shrunken log2 fold change: 0.0282

## RRIRFRPPRLPRPRPRPMSHPRP
  shrunken log2 fold change: 0.00661

## RRIRWRPPRLPRPRPRPLDPPRP
  shrunken log2 fold change: 0.0629

## RRIRGRPPRLPRPRPRPKVGPRP
  shrunken log2 fold change: 0.721

## RRIRERPPRLPRPRPRPDWIPRP
  shrunken log2 fold change: -0.126

## RRIRFRPPRLPRPRPRPNWLPRP
  shrunken log2 fold change: -0.0999

## RRIRNRPPRLPRPRPRPRIFPRP
  shrunken log2 fold change: -0.442

## RRIRDRPPRLPRPRPRPHVLPRP
  shrunken log2 fold change: 0.00542

## RRIRARPPRLPRPRPRPTWCPRP
  shrunken log2 fold change: 0.325

## RRIRFRPPRLPRPRPRPEMKPRP
  shrunken log2 fold change: 0.0843

## RRIRARPPRLPRPRPRPMIIPRP
  shrunken log2 fold change: -0.0301

## RRIRVRPPRLPRPRPRPNDNPRP
  shrunken log2 fold change: -0.481

## RRIRTRPPRLPRPRPRPDCRPRP
  shrunken log2 fold change: 0.106

## RRIRIRPPRLPRPRPRPDTFPRP
  shrunken log2 fold change: -0.364

## RRIRPRPPRLPRPRPRPFWAPRP
  shrunken log2 fold change: 0.0614

## RRIRVRPPRLPRPRPRPSPSPRP
  shrunken log2 fold change: -0.017

## RRIRIRPPRLPRPRPRPLNLPRP
  shrunken log2 fold change: -0.597

## RRIRCRPPRLPRPRPRPEVQPRP
  shrunken log2 fold change: 0.267

## RRIRQRPPRLPRPRPRPFQPPRP
  shrunken log2 fold change: 0.0592

## RRIRLRPPRLPRPRPRPCGDPRP
  shrunken log2 fold change: -0.00813

## RRIRQRPPRLPRPRPRPYGLPRP
  shrunken log2 fold change: -0.048

## RRIRDRPPRLPRPRPRPVTHPRP
  shrunken log2 fold change: -0.0987

## RRIRHRPPRLPRPRPRPLMNPRP
  shrunken log2 fold change: -0.642

## RRIRVRPPRLPRPRPRPECQPRP
  shrunken log2 fold change: 0.353

## RRIRIRPPRLPRPRPRPEKLPRP
  shrunken log2 fold change: -0.048

## RRIRDRPPRLPRPRPRPWNRPRP
  shrunken log2 fold change: -0.339

## RRIRWRPPRLPRPRPRPTRAPRP
  shrunken log2 fold change: 0.909

## RRIRTRPPRLPRPRPRPESCPRP
  shrunken log2 fold change: 0.145

## RRIRNRPPRLPRPRPRPNCYPRP
  shrunken log2 fold change: -0.618

## RRIRSRPPRLPRPRPRPLRSPRP
  shrunken log2 fold change: 0.747

## RRIRDRPPRLPRPRPRPSNWPRP
  shrunken log2 fold change: -0.136

## RRIRKRPPRLPRPRPRPMPPPRP
  shrunken log2 fold change: 0.729

## RRIRQRPPRLPRPRPRPTEWPRP
  shrunken log2 fold change: 0.446

## RRIRERPPRLPRPRPRPESNPRP
  shrunken log2 fold change: -0.65
